# Biological target: Adenovirus Serotype 5, replication incompetent, E1A deleted, expressing GFP (Ad5-GFP), whole virus (human adenovirus serotype 5, UniProt P12538 1-571); P11818 1-581; P04133 1-952, Whole virion. Only the three major capsid proteins named in the paper are given, as wild type: penton base (5 at each of 12 vertices), fiber (trimer at each vertex), hexon (240 trimers; the paper prin)
# Test: ELISA; cell-based: MDA-MB-435 cells in 96-well poly-D-lysine plates, incubated with whole Ad5 at varying concentrations for 18 hrs at 4°C, washed, fixed; bound virus detected with polyclonal rabbit anti-Ad5 and an ELISA amplification system; fit to the Langmuir binding isotherm
# Settings: one partner purified
binder,measurement,value
"Integrin αvβ5 (receptor, integrin alpha-V subunit, human, endogenous on the surface of MDA-MB-435 and MCF7 cells; integrin beta-5 subunit, human, endogenous on the surface of MDA-MB-435 and MCF7 cells; no isolated integrin was used; source: endogenous, on MDA-MB-435 and MCF7 cells) chain 1: FNLDVDSPAEYSGPEGSYFGFAVDFFVPSASSRMFLLVGAPKANTTQPGIVEGGQVLKCDWSSTRRCQPIEFDATGNRDYAKDDPLEFKSHQWFGASVRSKQDKILACAPLYHWRTEMKQEREPVGTCFLQDGTKTVEYAPCRSQDIDADGQGFCQGGFSIDFTKADRVLLGGPGSFYWQGQLISDQVAEIVSKYDPNVYSIKYNNQLATRTAQAIFDDSYLGYSVAVGDFNGDGIDDFVSGVPRAARTLGMVYIYDGKNMSSLYNFTGEQMAAYFGFSVAATDINGDDYADVFIGAPLFMDRGSDGKLQEVGQVSVSLQRASGDFQTTKLNGFEVFARFGSAIAPLGDLDQDGFNDIAIAAPYGGEDKKGIVYIFNGRSTGLNAVPSQILEGQWAARSMPPSFGYSMKGATDIDKNGYPDLIVGAFGVDRAILYRARPVITVNAGLEVYPSILNQDNKTCSLPGTALKVSCFNVRFCLKADGKGVLPRKLNFQVELLLDKLKQKGAIRRALFLYSRSPSHSKNMTISRGGLMQCEELIAYLRDESEFRDKLTPITIFMEYRLDYRTAADTTGLQPILNQFTPANISRQAHILLDCGEDNVCKPKLEVSVDSDQKKIYIGDDNPLTLIVKAQNQGEGAYEAELIVSIPLQADFIGVVRNNEALARLSCAFKTENQTRQVVCDLGNPMKAGTQLLAGLRFSVHQQSEMDTSVKFDLQIQSSNLFDKVSPVVSHKVDLAVLAAVEIRGVSSPDHVFLPIPNWEHKENPETEEDVGPVVQHIYELRNNGPSSFSKAMLHLQWPYKYNNNTLLYILHYDIDGPMNCTSDMEINPLRIKISSLQTTEKNDTVAGQGERDHLITKRDLALSEGDIHTLGCGVAQCLKIVCQVGRLDRGKSAILYVKSLLWTETFMNKENQNHSYSLKSSASFNVIEFPYKNLPIEDITNSTLVTTNVTWGIQPAPMPVPVWVIILAVLAGLLLLAVLVFVMYRMGFFKRVRPPQEEQEREQLQPHENGEGNSET chain 2: GLNICTSGSATSCEECLLIHPKCAWCSKEDFGSPRSITSRCDLRANLVKNGCGGEIESPASSFHVLRSLPLSSKGSGSAGWDVIQMTPQEIAVNLRPGDKTTFQLQVRQVEDYPVDLYYLMDLSLSMKDDLDNIRSLGTKLAEEMRKLTSNFRLGFGSFVDKDISPFSYTAPRYQTNPCIGYKLFPNCVPSFGFRHLLPLTDRVDSFNEEVRKQRVSRNRDAPEGGFDAVLQAAVCKEKIGWRKDALHLLVFTTDDVPHIALDGKLGGLVQPHDGQCHLNEANEYTASNQMDYPSLALLGEKLAENNINLIFAVTKNHYMLYKNFTALIPGTTVEILDGDSKNIIQLIINAYNSIRSKVELSVWDQPEDLNLFFTATCQDGVSYPGQRKCEGLKIGDTASFEVSLEARSCPSRHTEHVFALRPVGFRDSLEVGVTYNCTCGCSVGLEPNSARCNGSGTYVCGLCECSPGYLGTRCECQDGENQSVYQNLCREAEGKPLCSGRGDCSCNQCSCFESEFGKIYGPFCECDNFSCARNKGVLCSGHGECHCGECKCHAGYIGDNCNCSTDISTCRGRDGQICSERGHCLCGQCQCTEPGAFGEMCEKCPTCPDACSTKRDCVECLLLHSGKPDNQTCHSLCRDEVITWVDTIVKDDQEAVLCFYKTAKDCVMMFTYVELPSGKSNLTVLREPECGNTPNAMTILLAVVGSILLVGLALLAIWKLLVTIHDRREFAKFQSERSRARYEMASNPLYRKPISTHTVDFTFNKFNKSYNGTVD",Kd,0.14 nM
